Experimental findings from doi:10.1101/2020.05.22.111047 are described below.

The target of this series is Carbonic anhydrase 1 (CA1) (human, UniProt P00915 2-261). Put plainly: G-FET.

One may read the Kd as the constant that tells how readily two partners part at equilibrium. The low end stands for tighter binding, the high end for weaker binding.

Chain of Carbonic anhydrase 1 (CA1) (P00915 2-261): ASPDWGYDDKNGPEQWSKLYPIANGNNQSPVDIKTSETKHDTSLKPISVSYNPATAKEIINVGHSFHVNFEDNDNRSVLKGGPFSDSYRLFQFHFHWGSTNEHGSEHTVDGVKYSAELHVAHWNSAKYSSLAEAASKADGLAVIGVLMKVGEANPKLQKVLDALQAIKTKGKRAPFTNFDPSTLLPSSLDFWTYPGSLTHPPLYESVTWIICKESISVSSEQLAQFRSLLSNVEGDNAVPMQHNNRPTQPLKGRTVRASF

As for CAGGCGCAGUAUCACUUUGUGAUCAUUAGUGGGUUCCGUG (ssRNA, 5' amine, coupled to graphene via PBASE linker) [CA1 RNA aptamer], the affinity, expressed as Kd, was 2.27 ng/mL.
